Consider six molecules from US20140087995A1 (published 2014).

The term IC50 denotes the concentration that inhibits the measured activity by half.

Numbered stars: 1 amine (or outer) side, 2 acyl side, 3 side chain; on linkers, the order of the positions; unused ones are H or OH. Bridge positions count the residues as written; N and C are the ends. Side chains are listed from the residue outwards. Ends that are not written are not given here. * marks the point of attachment. C20 diacid = O=C(O)CCCCCCCCCCCCCCCCCCC(=O)*; γGlu = O=C(O)[C@H](CCC(=O)[*:2])N[*:1]; AEEA = NCCOCCOCC(=O)O

For the test, the target named is T1, human amylin receptor (amylin 3(a) receptor: human calcitonin receptor with RAMP-3) (human, UniProt P30988 25-474; O60896 24-148).
T1 construct: whole, on cells; also called hAmylin-R; hAmylinR
T1 sequence (looked up) 1: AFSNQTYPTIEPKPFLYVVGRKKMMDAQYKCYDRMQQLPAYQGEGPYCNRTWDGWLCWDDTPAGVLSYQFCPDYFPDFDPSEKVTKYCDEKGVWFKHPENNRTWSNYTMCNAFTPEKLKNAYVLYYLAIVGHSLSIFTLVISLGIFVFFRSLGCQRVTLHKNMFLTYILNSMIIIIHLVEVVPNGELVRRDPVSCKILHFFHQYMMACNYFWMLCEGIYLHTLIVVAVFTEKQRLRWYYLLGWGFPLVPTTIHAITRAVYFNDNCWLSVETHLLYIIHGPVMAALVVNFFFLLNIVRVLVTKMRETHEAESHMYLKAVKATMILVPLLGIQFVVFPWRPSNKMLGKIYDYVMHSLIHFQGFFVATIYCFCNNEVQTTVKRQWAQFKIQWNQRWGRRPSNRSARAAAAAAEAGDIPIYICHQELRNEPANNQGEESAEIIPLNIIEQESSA
T1 sequence (looked up) 2: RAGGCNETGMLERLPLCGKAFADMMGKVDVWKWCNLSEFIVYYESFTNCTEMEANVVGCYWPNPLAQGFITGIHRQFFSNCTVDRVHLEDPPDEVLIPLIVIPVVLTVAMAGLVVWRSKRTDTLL
Nature of the test: SPA displacement of 125I-rat amylin, hAmylin 3(a) receptor membranes. In a few lines: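 Cell membranes were prepared by homogenisation in Na-HEPES/EDTA buffer, pH 7.4, and stored at −80° C. They were then coupled to SPA beads at 35 ng/μL final and exposed to compounds in assay buffer containing CaCl2, MgCl₂, OA and Tween20. After 120 min at 25° C, plates were counted and IC₅₀ derived.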
On the technique in general: Loss of bound radioactivity is the signal in a displacement assay; it reports binding, not function.

B1: N^ε1-[2-[2-[2-[[(4S)-4-carboxy-4-(19-carboxynonadecanoylamino)butanoyl]amino]ethoxy]ethoxy]acetyl]-[Arg17,Pro21,Pro27]-h-amylin (peptide)
peptide: K([AEEA-γGlu-C20 diacid])CNTATCATQRLANFLRHSSPNFGAIPSSTNVGSNTY-NH2
modifications: disulfide 2-7; N-terminus assumed
SMILES: CC[C@H](C)[C@H](NC(=O)[C@H](C)NC(=O)CNC(=O)[C@H](Cc1ccccc1)NC(=O)[C@H](CC(N)=O)NC(=O)[C@@H]1CCCN1C(=O)[C@H](CO)NC(=O)[C@H](CO)NC(=O)[C@H](Cc1c[nH]cn1)NC(=O)[C@H](CCCNC(=N)N)NC(=O)[C@H](CC(C)C)NC(=O)[C@H](Cc1ccccc1)NC(=O)[C@H](CC(N)=O)NC(=O)[C@H](C)NC(=O)[C@H](CC(C)C)NC(=O)[C@H](CCCNC(=N)N)NC(=O)[C@H](CCC(N)=O)NC(=O)[C@@H](NC(=O)[C@H](C)NC(=O)[C@@H]1CSSC[C@H](NC(=O)[C@@H](N)CCCCNC(=O)COCCOCCNC(=O)CC[C@H](NC(=O)CCCCCCCCCCCCCCCCCCC(=O)O)C(=O)O)C(=O)N[C@@H](CC(N)=O)C(=O)N[C@@H]([C@@H](C)O)C(=O)N[C@@H](C)C(=O)N[C@@H]([C@@H](C)O)C(=O)N1)[C@@H](C)O)C(=O)N1CCC[C@H]1C(=O)N[C@@H](CO)C(=O)N[C@@H](CO)C(=O)N[C@H](C(=O)N[C@@H](CC(N)=O)C(=O)N[C@H](C(=O)NCC(=O)N[C@@H](CO)C(=O)N[C@@H](CC(N)=O)C(=O)N[C@H](C(=O)N[C@@H](Cc1ccc(O)cc1)C(N)=O)[C@@H](C)O)C(C)C)[C@@H](C)O
notes: also called 41; compound 41
Take B1: the IC50 is 0.427 nM.

B2: N^ε-[(4S)-4-carboxy-4-(19-carboxynonadecanoylamino)butanoyl]Lys[Arg1,Arg17,Pro21,Pro27,His35]-h-amylin (peptide)
peptide: K([γGlu-C20 diacid])RCNTATCATQRLANFLRHSSPNFGAIPSSTNVGSHTY-NH2
modifications: disulfide 3-8; N-terminus assumed
SMILES: CC[C@H](C)[C@H](NC(=O)[C@H](C)NC(=O)CNC(=O)[C@H](Cc1ccccc1)NC(=O)[C@H](CC(N)=O)NC(=O)[C@@H]1CCCN1C(=O)[C@H](CO)NC(=O)[C@H](CO)NC(=O)[C@H](Cc1c[nH]cn1)NC(=O)[C@H](CCCNC(=N)N)NC(=O)[C@H](CC(C)C)NC(=O)[C@H](Cc1ccccc1)NC(=O)[C@H](CC(N)=O)NC(=O)[C@H](C)NC(=O)[C@H](CC(C)C)NC(=O)[C@H](CCCNC(=N)N)NC(=O)[C@H](CCC(N)=O)NC(=O)[C@@H](NC(=O)[C@H](C)NC(=O)[C@@H]1CSSC[C@H](NC(=O)[C@H](CCCNC(=N)N)NC(=O)[C@@H](N)CCCCNC(=O)CC[C@H](NC(=O)CCCCCCCCCCCCCCCCCCC(=O)O)C(=O)O)C(=O)N[C@@H](CC(N)=O)C(=O)N[C@@H]([C@@H](C)O)C(=O)N[C@@H](C)C(=O)N[C@@H]([C@@H](C)O)C(=O)N1)[C@@H](C)O)C(=O)N1CCC[C@H]1C(=O)N[C@@H](CO)C(=O)N[C@@H](CO)C(=O)N[C@H](C(=O)N[C@@H](CC(N)=O)C(=O)N[C@H](C(=O)NCC(=O)N[C@@H](CO)C(=O)N[C@@H](Cc1c[nH]cn1)C(=O)N[C@H](C(=O)N[C@@H](Cc1ccc(O)cc1)C(N)=O)[C@@H](C)O)C(C)C)[C@@H](C)O
notes: also called 44; compound 44
Consider B2, for which the IC50 came out at 0.275 nM.

B3: N^-1-[(4S)-4-carboxy-4-(19-carboxynonadecanoylamino)butanoyl]-Gly[Arg1,Arg17,Pro21,Pro27,His35]-h-amylin (peptide)
peptide: {C20 diacid-γGlu}-GRCNTATCATQRLANFLRHSSPNFGAIPSSTNVGSHTY-NH2
modifications: disulfide 3-8
SMILES: CC[C@H](C)[C@H](NC(=O)[C@H](C)NC(=O)CNC(=O)[C@H](Cc1ccccc1)NC(=O)[C@H](CC(N)=O)NC(=O)[C@@H]1CCCN1C(=O)[C@H](CO)NC(=O)[C@H](CO)NC(=O)[C@H](Cc1c[nH]cn1)NC(=O)[C@H](CCCNC(=N)N)NC(=O)[C@H](CC(C)C)NC(=O)[C@H](Cc1ccccc1)NC(=O)[C@H](CC(N)=O)NC(=O)[C@H](C)NC(=O)[C@H](CC(C)C)NC(=O)[C@H](CCCNC(=N)N)NC(=O)[C@H](CCC(N)=O)NC(=O)[C@@H](NC(=O)[C@H](C)NC(=O)[C@@H]1CSSC[C@H](NC(=O)[C@H](CCCNC(=N)N)NC(=O)CNC(=O)CC[C@H](NC(=O)CCCCCCCCCCCCCCCCCCC(=O)O)C(=O)O)C(=O)N[C@@H](CC(N)=O)C(=O)N[C@@H]([C@@H](C)O)C(=O)N[C@@H](C)C(=O)N[C@@H]([C@@H](C)O)C(=O)N1)[C@@H](C)O)C(=O)N1CCC[C@H]1C(=O)N[C@@H](CO)C(=O)N[C@@H](CO)C(=O)N[C@H](C(=O)N[C@@H](CC(N)=O)C(=O)N[C@H](C(=O)NCC(=O)N[C@@H](CO)C(=O)N[C@@H](Cc1c[nH]cn1)C(=O)N[C@H](C(=O)N[C@@H](Cc1ccc(O)cc1)C(N)=O)[C@@H](C)O)C(C)C)[C@@H](C)O
notes: also called 47; compound 47
On to B3, for which the IC50 was found to be 0.344 nM.

B4: N^ε21-[(4S)-4-carboxy-4-[[(4S)-4-carboxy-4-(19-carboxynonadecanoylamino)butanoyl]amino]butanoyl]-[Asp14,Arg17,Lys21,Pro27,Asp35]-h-amylin (peptide)
peptide: KCNTATCATQRLADFLRHSSK([γGlu-γGlu-C20 diacid])NFGAIPSSTNVGSDTY-NH2
modifications: disulfide 2-7; N-terminus assumed
SMILES: CC[C@H](C)[C@H](NC(=O)[C@H](C)NC(=O)CNC(=O)[C@H](Cc1ccccc1)NC(=O)[C@H](CC(N)=O)NC(=O)[C@H](CCCCNC(=O)CC[C@H](NC(=O)CC[C@H](NC(=O)CCCCCCCCCCCCCCCCCCC(=O)O)C(=O)O)C(=O)O)NC(=O)[C@H](CO)NC(=O)[C@H](CO)NC(=O)[C@H](Cc1c[nH]cn1)NC(=O)[C@H](CCCNC(=N)N)NC(=O)[C@H](CC(C)C)NC(=O)[C@H](Cc1ccccc1)NC(=O)[C@H](CC(=O)O)NC(=O)[C@H](C)NC(=O)[C@H](CC(C)C)NC(=O)[C@H](CCCNC(=N)N)NC(=O)[C@H](CCC(N)=O)NC(=O)[C@@H](NC(=O)[C@H](C)NC(=O)[C@@H]1CSSC[C@H](NC(=O)[C@@H](N)CCCCN)C(=O)N[C@@H](CC(N)=O)C(=O)N[C@@H]([C@@H](C)O)C(=O)N[C@@H](C)C(=O)N[C@@H]([C@@H](C)O)C(=O)N1)[C@@H](C)O)C(=O)N1CCC[C@H]1C(=O)N[C@@H](CO)C(=O)N[C@@H](CO)C(=O)N[C@H](C(=O)N[C@@H](CC(N)=O)C(=O)N[C@H](C(=O)NCC(=O)N[C@@H](CO)C(=O)N[C@@H](CC(=O)O)C(=O)N[C@H](C(=O)N[C@@H](Cc1ccc(O)cc1)C(N)=O)[C@@H](C)O)C(C)C)[C@@H](C)O
notes: also called 59; compound 59
Take B4: the IC50 was determined as 1.19 nM.

B5: N{Alpha-1}-[(4S)-4-carboxy-4-(19-carboxynonadecanoylamino)butanoyl]-[Glu14,Arg17,Pro21,Pro27,Lys34]-h-amylin (peptide)
peptide: {C20 diacid-γGlu}-KCNTATCATQRLAEFLRHSSPNFGAIPSSTNVGKNTY-NH2
modifications: disulfide 2-7
SMILES: CC[C@H](C)[C@H](NC(=O)[C@H](C)NC(=O)CNC(=O)[C@H](Cc1ccccc1)NC(=O)[C@H](CC(N)=O)NC(=O)[C@@H]1CCCN1C(=O)[C@H](CO)NC(=O)[C@H](CO)NC(=O)[C@H](Cc1c[nH]cn1)NC(=O)[C@H](CCCNC(=N)N)NC(=O)[C@H](CC(C)C)NC(=O)[C@H](Cc1ccccc1)NC(=O)[C@H](CCC(=O)O)NC(=O)[C@H](C)NC(=O)[C@H](CC(C)C)NC(=O)[C@H](CCCNC(=N)N)NC(=O)[C@H](CCC(N)=O)NC(=O)[C@@H](NC(=O)[C@H](C)NC(=O)[C@@H]1CSSC[C@H](NC(=O)[C@H](CCCCN)NC(=O)CC[C@H](NC(=O)CCCCCCCCCCCCCCCCCCC(=O)O)C(=O)O)C(=O)N[C@@H](CC(N)=O)C(=O)N[C@@H]([C@@H](C)O)C(=O)N[C@@H](C)C(=O)N[C@@H]([C@@H](C)O)C(=O)N1)[C@@H](C)O)C(=O)N1CCC[C@H]1C(=O)N[C@@H](CO)C(=O)N[C@@H](CO)C(=O)N[C@H](C(=O)N[C@@H](CC(N)=O)C(=O)N[C@H](C(=O)NCC(=O)N[C@@H](CCCCN)C(=O)N[C@@H](CC(N)=O)C(=O)N[C@H](C(=O)N[C@@H](Cc1ccc(O)cc1)C(N)=O)[C@@H](C)O)C(C)C)[C@@H](C)O
notes: also called 36; compound 36
In the case of B5, the 50% inhibitory concentration (IC50) was found to be 0.403 nM.

B6: N^ε1-[2-[2-[2-(19-carboxynonadecanoylamino)ethoxy]ethoxy]acetyl]-[Arg17,Pro21,Pro27]-h-amylin (peptide)
peptide: K([AEEA-C20 diacid])CNTATCATQRLANFLRHSSPNFGAIPSSTNVGSNTY-NH2
modifications: disulfide 2-7; N-terminus assumed
SMILES: CC[C@H](C)[C@H](NC(=O)[C@H](C)NC(=O)CNC(=O)[C@H](Cc1ccccc1)NC(=O)[C@H](CC(N)=O)NC(=O)[C@@H]1CCCN1C(=O)[C@H](CO)NC(=O)[C@H](CO)NC(=O)[C@H](Cc1c[nH]cn1)NC(=O)[C@H](CCCNC(=N)N)NC(=O)[C@H](CC(C)C)NC(=O)[C@H](Cc1ccccc1)NC(=O)[C@H](CC(N)=O)NC(=O)[C@H](C)NC(=O)[C@H](CC(C)C)NC(=O)[C@H](CCCNC(=N)N)NC(=O)[C@H](CCC(N)=O)NC(=O)[C@@H](NC(=O)[C@H](C)NC(=O)[C@@H]1CSSC[C@H](NC(=O)[C@@H](N)CCCCNC(=O)COCCOCCNC(=O)CCCCCCCCCCCCCCCCCCC(=O)O)C(=O)N[C@@H](CC(N)=O)C(=O)N[C@@H]([C@@H](C)O)C(=O)N[C@@H](C)C(=O)N[C@@H]([C@@H](C)O)C(=O)N1)[C@@H](C)O)C(=O)N1CCC[C@H]1C(=O)N[C@@H](CO)C(=O)N[C@@H](CO)C(=O)N[C@H](C(=O)N[C@@H](CC(N)=O)C(=O)N[C@H](C(=O)NCC(=O)N[C@@H](CO)C(=O)N[C@@H](CC(N)=O)C(=O)N[C@H](C(=O)N[C@@H](Cc1ccc(O)cc1)C(N)=O)[C@@H](C)O)C(C)C)[C@@H](C)O
notes: also called 43; compound 43
Consider B6, for which the IC50 was found to be 0.076 nM.
